Data from patent publication US20070224194A1, “Methods for Inhibiting Angiogenesis and/or Lymphangiogenesis” (LUDWIG INSTITUTE FOR CANCER RESEARCH, priority 2004, published 2007).
Like-named read-outs stand apart in the source and are kept apart here.

Experiments:
VEGFR-3 [1] = biological target: T1, VEGFR-3 (Homo sapiens, UniProt P35916); assay: Biosensor analysis (surface plasmon resonance) of VEGF-D ligands on VEGFR-3; type: binding
Description: (§1) To determine the relative affinities of the ligands VEGF-DSSTS.IISS, VEGF-D-FULL-N-FLAG and mature VEGF-D (designated VEGF-DΔNΔC) for VEGFR-2 and VEGFR-3, the relative binding kinetics for these interactions was analyzed by biosensor analysis using surface plasmon resonance detection (Nice et al., Bioessays, 21:339-352, 1999). The preparations of VEGF-DSSTS.IISS and VEGF-DΔNΔC used for this analysis each consisted of one VEGF-D species devoid of other forms of VEGF-D but the preparation of VEGF-D-FULL-N-FLAG did contain traces of partially processed as well as full-length material, reflecting the capacity of wild-type full-length VEGF-D to be proteolytically processed in the 293EBNA cell cultures) from which these proteins were purified (see FIG. 10B). The binding constants for the interactions were obtained by analysis of the initial dissociation phase to obtain the kd, which was then used to constrain a global analysis of the association region of the curves, using regions of the curves where a 1:1 Langmurian model appeared to be operative.

VEGFR-2 [2] = biological target: T2, VEGFR-2 (Homo sapiens, UniProt P35968); assay: Biosensor analysis (surface plasmon resonance) of VEGF-D ligands on VEGFR-2; type: binding; settings: 1:1 Langmurian model
T2 sequence (P35968 20-1356): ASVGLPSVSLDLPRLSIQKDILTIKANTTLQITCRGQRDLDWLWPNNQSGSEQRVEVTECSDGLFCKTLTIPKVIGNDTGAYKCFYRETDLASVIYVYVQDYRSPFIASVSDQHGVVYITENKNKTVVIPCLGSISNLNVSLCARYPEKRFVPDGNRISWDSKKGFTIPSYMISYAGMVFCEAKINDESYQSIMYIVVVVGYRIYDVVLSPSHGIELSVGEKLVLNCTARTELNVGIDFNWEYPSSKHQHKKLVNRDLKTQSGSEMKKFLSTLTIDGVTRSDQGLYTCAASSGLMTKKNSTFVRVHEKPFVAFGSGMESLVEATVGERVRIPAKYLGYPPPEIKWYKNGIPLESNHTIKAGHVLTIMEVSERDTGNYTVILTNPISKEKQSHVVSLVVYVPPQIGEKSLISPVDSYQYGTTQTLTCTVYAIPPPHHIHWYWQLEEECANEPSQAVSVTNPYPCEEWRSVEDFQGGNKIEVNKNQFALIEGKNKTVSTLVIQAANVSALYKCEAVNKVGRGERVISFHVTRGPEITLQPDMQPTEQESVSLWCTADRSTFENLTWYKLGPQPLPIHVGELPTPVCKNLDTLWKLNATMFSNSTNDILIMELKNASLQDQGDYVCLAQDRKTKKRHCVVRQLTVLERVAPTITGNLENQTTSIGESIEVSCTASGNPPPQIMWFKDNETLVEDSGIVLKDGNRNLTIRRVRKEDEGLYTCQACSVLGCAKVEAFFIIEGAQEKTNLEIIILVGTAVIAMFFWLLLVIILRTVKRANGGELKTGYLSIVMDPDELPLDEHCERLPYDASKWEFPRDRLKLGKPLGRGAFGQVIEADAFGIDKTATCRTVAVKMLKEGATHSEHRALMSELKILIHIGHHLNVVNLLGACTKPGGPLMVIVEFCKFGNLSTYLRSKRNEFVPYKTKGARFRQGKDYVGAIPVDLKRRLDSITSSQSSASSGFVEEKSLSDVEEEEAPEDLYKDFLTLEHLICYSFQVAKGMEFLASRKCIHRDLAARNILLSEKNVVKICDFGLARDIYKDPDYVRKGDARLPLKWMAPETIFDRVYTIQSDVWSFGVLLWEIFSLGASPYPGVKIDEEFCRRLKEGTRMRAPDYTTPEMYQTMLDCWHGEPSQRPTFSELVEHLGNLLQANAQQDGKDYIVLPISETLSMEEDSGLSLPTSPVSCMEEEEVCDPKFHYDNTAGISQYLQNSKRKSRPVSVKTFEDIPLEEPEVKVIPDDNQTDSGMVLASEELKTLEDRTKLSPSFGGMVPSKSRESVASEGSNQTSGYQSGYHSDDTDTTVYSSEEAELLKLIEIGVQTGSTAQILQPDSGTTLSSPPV
Description: as §1

VEGFR-3 [3] = biological target: T1, VEGFR-3; settings: cited from earlier work
VEGFR-2 [4] = biological target: T2, VEGFR-2; settings: full-length form that could be processed, cited from earlier work

T1 sequence (P35916 25-1363): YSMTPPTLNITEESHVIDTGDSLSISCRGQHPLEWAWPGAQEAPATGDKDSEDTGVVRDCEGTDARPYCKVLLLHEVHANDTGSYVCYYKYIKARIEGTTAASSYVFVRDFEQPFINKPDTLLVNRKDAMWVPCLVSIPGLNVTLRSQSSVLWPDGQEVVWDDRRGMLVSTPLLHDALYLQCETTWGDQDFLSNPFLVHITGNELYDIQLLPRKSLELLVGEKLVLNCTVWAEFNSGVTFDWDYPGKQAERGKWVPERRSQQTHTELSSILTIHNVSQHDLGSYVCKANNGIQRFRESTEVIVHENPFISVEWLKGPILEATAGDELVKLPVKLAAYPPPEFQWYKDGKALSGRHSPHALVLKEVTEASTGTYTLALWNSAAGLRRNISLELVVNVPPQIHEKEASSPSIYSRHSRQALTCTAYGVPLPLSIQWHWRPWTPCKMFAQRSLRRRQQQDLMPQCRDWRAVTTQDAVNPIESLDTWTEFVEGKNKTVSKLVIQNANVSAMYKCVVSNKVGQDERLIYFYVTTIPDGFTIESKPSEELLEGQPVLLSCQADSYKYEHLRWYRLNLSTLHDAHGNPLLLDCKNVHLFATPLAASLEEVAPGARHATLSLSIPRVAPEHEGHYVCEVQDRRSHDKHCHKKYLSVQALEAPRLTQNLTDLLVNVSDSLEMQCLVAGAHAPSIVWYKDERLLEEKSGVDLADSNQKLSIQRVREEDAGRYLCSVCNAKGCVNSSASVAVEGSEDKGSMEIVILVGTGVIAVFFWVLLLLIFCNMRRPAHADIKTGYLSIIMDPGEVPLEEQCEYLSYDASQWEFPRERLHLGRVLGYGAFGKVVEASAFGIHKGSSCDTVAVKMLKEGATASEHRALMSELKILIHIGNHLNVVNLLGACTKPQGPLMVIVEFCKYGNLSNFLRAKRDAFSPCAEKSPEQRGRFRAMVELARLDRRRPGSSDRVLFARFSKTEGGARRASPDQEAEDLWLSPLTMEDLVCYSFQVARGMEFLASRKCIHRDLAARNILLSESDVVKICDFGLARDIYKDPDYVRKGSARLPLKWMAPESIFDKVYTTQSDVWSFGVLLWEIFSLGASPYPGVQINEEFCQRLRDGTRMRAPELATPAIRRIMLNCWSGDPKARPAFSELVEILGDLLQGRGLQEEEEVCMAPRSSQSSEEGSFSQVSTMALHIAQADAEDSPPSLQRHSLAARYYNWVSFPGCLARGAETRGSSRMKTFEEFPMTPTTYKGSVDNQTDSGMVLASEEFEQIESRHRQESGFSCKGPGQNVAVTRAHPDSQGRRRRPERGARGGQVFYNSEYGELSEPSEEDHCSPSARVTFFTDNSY

B1: mature VEGF-D: mature form of VEGF-D consisting of dimers of the VHD, lacking both propeptides (protein)
chain: FAATFYDIETLKVIDEEWQRTQCSPRETCVEVASELGKSTNTFFKPPCVNVFRCGGCCNEESLICMNTSTSYISKQLFEISVPLTSVPELVPVKVANHTGCKCLPTAPRHPYSIIRR
Which “affinity for VEGFR-3 relative to VEGF-DSSTS.IISS” value (VEGFR-3 [1]) does the source give for B1 here?
Its value is about 18 fold.

And the “apparent affinity for VEGFR-2 relative to unprocessed mutant VEGF-DSSTS.IISS” value (VEGFR-2 [2])?
The value was ~17,000 fold.

What about the “affinity for VEGFR-3 relative to unprocessed VEGF-D, previously reported” value (VEGFR-3 [3]) of the same molecule?
Its value is about 40 fold.

What about the “affinity for VEGFR-2 relative to full-length (unprocessed) VEGF-D, previously reported” value (VEGFR-2 [4]) of the same molecule?
The value was about 290 fold.

And the “affinity for VEGFR-2 relative to full-length (unprocessed) VEGF-D, previously reported” value (VEGFR-2 [4]; listed as mature form of VEGF-D)?
The value was “approximately 290 fold”.
